Article PMC6805918, “Extracellular pyridine nucleotides trigger plant systemic immunity through a lectin receptor kinase/BAK1 complex” (Nature Communications, 2019)

Biological target: T1, GST-BAK1KD (cytoplasmic kinase domain of BAK1, AAs 250-615, fused to GST) (Arabidopsis thaliana, UniProt Q94F62 250-615)
T1 construct: BRASSINOSTEROID …1-ASSOCIATED KINASE1 (BAK1), Arabidopsis thaliana, cytoplasmic kinase domain, amino acids 250-615; Cloned into the EcoRI/SalI site of pGEX-4T-1; source: E. coli BL21(DE3), purified; not shown: GST, N-terminal, kept
T1 sequence (looked up): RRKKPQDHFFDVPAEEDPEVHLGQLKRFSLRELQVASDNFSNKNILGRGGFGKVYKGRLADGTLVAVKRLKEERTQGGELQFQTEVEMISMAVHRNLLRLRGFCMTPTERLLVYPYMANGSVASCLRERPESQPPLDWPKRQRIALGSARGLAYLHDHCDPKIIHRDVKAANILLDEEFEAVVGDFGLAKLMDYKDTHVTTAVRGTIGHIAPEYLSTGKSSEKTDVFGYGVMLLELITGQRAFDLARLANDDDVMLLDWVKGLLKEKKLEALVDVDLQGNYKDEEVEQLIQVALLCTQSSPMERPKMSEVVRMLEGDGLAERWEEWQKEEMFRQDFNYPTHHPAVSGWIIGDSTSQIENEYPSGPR
Experiment: pull-down; 1 μg MBP or MBP-LecRK-VI.2KD incubated with 1 μg GST-BAK1KD in 20 mM Tris-HCl, 200 mM NaCl, 1 mM EDTA, pH 7.4, 4 °C; pulled down with amylose resin beads; washes with 0.6% Triton X-100; immunoblot with anti-MBP and anti-GST
Conditions: both partners purified

- binding result: binds
B1: MBP-LecRK-VI.2KD (cytoplasmic kinase domain of LecRK-VI.2, AAs 331-682, fused to maltose-binding protein) (domain or fragment, Arabidopsis thaliana, UniProt Q9M021 331-682, looked up)
chain: FVMYKKRLGQEETLEDWEIDHPRRLRYRDLYVATDGFKKTGIIGTGGFGTVFKGKLPNSDPIAVKKIIPSSRQGVREFVAEIESLGKLRHKNLVNLQGWCKHKNDLLLIYDYIPNGSLDSLLYTVPRRSGAVLSWNARFQIAKGIASGLLYLHEEWEKIVIHRDVKPSNVLIDSKMNPRLGDFGLARLYERGTLSETTALVGTIGYMAPELSRNGNPSSASDVFAFGVLLLEIVCGRKPTDSGTFFLVDWVMELHANGEILSAIDPRLGSGYDGGEARLALAVGLLCCHQKPASRPSMRIVLRYLNGEENVPEIDDEWGYSKSSRSEFGSKLVGYVSSTSITRVSSTSRISQ
notes: lectin receptor kinase LecRK-VI.2, Arabidopsis thaliana, gene At5g01540, cytoplasmic kinase domain, amino acids 331-682; Cloned into the BamHI/SalI site of pMAL-p2X; source: E. coli BL21(DE3), purified; not shown: MBP, N-terminal, kept
